Our source for the Kd, koff and kon values is PMC12319226 (Frontiers in Bioinformatics, 2025).

Holding throughout (experiment): BLI
What all share (settings): both partners purified

The target in assay [1] is T1, factor H binding protein variant 1.1 (Neisseria meningitidis serogroup B …, UniProt Q9JXV4).
T1 construct: also called fHbp v1.1; v1.1 Control (0001)

Another assay deals with T2, fHbp m001767 (Neisseria meningitidis fHbp v3.28, …, point mutant).
T2 chain: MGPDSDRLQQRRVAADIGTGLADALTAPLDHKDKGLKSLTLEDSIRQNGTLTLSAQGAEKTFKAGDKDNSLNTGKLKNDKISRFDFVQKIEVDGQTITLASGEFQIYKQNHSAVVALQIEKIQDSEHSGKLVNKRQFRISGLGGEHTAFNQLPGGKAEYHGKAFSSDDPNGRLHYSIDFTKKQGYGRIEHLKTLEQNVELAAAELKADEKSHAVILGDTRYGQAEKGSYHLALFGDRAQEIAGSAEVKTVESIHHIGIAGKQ

The target of the next assay is T3, fHbp m001822 (Neisseria meningitidis, engineered fHbp …, point mutant).
T3 chain: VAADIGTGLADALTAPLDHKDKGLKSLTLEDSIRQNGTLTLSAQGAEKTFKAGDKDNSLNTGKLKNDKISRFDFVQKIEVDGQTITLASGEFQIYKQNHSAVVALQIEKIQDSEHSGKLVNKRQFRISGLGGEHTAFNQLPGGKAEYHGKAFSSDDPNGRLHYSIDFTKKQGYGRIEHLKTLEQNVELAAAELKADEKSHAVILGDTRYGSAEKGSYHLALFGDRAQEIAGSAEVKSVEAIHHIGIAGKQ

Another assay has as its target T4, fHbp m001832 (Neisseria meningitidis fHbp v3.28, …, chimera).
T4 chain: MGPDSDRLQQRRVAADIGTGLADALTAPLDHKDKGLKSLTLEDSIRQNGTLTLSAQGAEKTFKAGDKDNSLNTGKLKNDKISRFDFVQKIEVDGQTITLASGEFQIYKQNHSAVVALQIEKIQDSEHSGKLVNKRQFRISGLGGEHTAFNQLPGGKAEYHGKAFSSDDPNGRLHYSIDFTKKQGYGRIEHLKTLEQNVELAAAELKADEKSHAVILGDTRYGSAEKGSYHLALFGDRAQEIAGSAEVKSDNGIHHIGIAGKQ

Another assay deals with T5, fHbp m001848 (Neisseria meningitidis, engineered fHbp …, chimera).
T5 chain: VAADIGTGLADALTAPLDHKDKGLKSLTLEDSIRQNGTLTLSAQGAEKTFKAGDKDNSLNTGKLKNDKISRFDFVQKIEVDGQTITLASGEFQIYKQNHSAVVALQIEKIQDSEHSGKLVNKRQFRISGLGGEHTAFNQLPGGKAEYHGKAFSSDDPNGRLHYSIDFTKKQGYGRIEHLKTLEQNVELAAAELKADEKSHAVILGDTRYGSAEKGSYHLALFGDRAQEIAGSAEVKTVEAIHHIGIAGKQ

The target of another assay is T6, fHbp m001604 (Neisseria meningitidis, fHbp …, point mutant).
T6 chain: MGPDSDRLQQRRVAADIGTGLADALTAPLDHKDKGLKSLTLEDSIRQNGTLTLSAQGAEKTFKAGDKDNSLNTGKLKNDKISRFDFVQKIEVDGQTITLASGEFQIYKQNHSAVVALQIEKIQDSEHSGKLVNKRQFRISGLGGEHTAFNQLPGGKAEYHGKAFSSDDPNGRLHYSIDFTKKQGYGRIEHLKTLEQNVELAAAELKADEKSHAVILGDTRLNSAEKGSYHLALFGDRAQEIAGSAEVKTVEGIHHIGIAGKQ

B1: chimeric antibody h12C1 (antibody, V domains shown)
VH: QVQLQESGPELVKPGASVKISCKASGYSFSDYNMSWVKQSNGKSLEWIGIIDPKYGTINYNQKFKGKATLTVDQASSTAYMQLNSLTSEDSAVYYCVRDYYGSSYFDYWGQGTTLTVSS
VL: DIVLTQSPSSIYASLGERVTLTCKASQDIHNYLNWFQQKPGKSPKTLIYRANRLVDGVPSRFSGGGSGQDYSLTISSLEFEDIGIYYCLQYDEFPPTFGGGTRLEIK
notes: also called humanized 12C1; source: Expi293, purified (MabSelect SuRe, SEC); copies: 2 + 2
For B1, in assay [1], the Kd (commonly the equilibrium constant for the complex coming apart) was found to be 0.391 nM; the koff (as a rule, the rate constant with which the complex falls apart) is 0.000273 s⁻¹; the kon – broadly, the rate constant with which the complex forms – was 697400 ± 1920 M⁻¹ s⁻¹.

B2: mAb 1E6 (human) (antibody, V domains shown)
VH: EVQLVQSGAEVKKPGSSVKVSCKASGGTVIDYPITWVRQAPGQGLEWVGGFVPLFRTSNYGQKFQGRVTITADKSTSTASMELNSLTSEDTAIYYCARGDTAMGPFDYWGQGTLVTVSS
VL: SYVLTQPPSLSVAPGKTATLTCGGNNIAGKTVHWYQQRPGQAPVLVISYDSDRPSGIPERFSGSNSANTATLTISRVEAGDEADYYCQVWDRNSDHWVFGGGTKLTVL
notes: source: Expi293, purified (MabSelect SuRe, SEC); copies: 2 + 2
With B2, the Kd in the assay with fHbp m001767 turned out to be 0.131 nM; with fHbp m001822, 0.455 nM; with fHbp m001832, 0.435 nM; in the assay with fHbp m001848, 0.344 nM; in the assay with fHbp m001604, 0.493 nM. Moreover, the koff with fHbp m001767 is 4.68e-05 s⁻¹; with fHbp m001822 it was 0.00017 s⁻¹; in the assay with fHbp m001832 it was 0.00016 s⁻¹; with fHbp m001848, 0.000155 s⁻¹; with fHbp m001604, 0.000104 s⁻¹. Also, the kon in the assay with fHbp m001767 was determined as 358200 ± 2140 M⁻¹ s⁻¹; in the assay with fHbp m001822, 372900 ± 2610 M⁻¹ s⁻¹; with fHbp m001832, 367800 ± 1240 M⁻¹ s⁻¹; with fHbp m001848, 451100 ± 2150 M⁻¹ s⁻¹; with fHbp m001604, 210000 ± 2260 M⁻¹ s⁻¹.
